For 1 substance, FACS fluorescence results are on record in patent US20250333501A1.

The target of experiment [1] is human CLDN6 fused to GFP, expressed on engineered HEK293T cells (HEK293T-CLDN6-mGFP) (human) (UniProt P56747). The experiment is described as follows: FACS, 0.3 µg Ab, 293T clone with human CLDN6. On the technique in general: A flow cytometer gives signals particle by particle.
Experiment [2] deals with CLDN6 endogenously expressed by human cancer cell lines (ARK2, OVCA429) (human) (UniProt P56747). The experiment is described as follows: FACS, 0.3 µg Ab, ARK2 cells.
The target in experiment [3] is mouse CLDN6 fused to GFP, expressed on engineered HEK293T cells (mouse) (UniProt Q9Z262). The experiment is described as follows: FACS, 293T clone with mouse CLDN6, dose not given.
For experiment [4], the target named is human CLDN6 fused to GFP, expressed on engineered HEK293T cells (HEK293T-CLDN6-mGFP) (human) (UniProt P56747). In words: FACS, 1.5 µg Ab, 293T clone with human CLDN6.
Experiment [5] addresses CLDN6 endogenously expressed by human cancer cell lines (ARK2, OVCA429) (human) (UniProt P56747). In words: FACS, 1.5 µg Ab, OVCA429 cells.
Experiment [6] shares this target. The experiment is described as follows: FACS, 1.5 µg Ab, ARK2 cells.

Chain of CLDN6 endogenously expressed by human cancer cell lines (ARK2, OVCA429) (human) (P56747 whole entry, the tested form may be a part): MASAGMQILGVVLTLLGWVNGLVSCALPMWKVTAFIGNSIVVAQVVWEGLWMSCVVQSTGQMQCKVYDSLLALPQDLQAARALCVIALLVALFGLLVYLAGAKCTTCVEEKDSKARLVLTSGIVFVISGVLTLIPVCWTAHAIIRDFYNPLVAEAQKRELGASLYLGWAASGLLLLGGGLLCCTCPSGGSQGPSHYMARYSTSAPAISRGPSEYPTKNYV
Chain of human CLDN6 fused to GFP, expressed on engineered HEK293T cells (HEK293T-CLDN6-mGFP) (human) (P56747 whole entry, change not shown, the tested form may be a part): as the sequence (P56747 whole entry, the tested form may be a part) above
Chain of mouse CLDN6 fused to GFP, expressed on engineered HEK293T cells (mouse) (Q9Z262 whole entry, change not shown, the tested form may be a part): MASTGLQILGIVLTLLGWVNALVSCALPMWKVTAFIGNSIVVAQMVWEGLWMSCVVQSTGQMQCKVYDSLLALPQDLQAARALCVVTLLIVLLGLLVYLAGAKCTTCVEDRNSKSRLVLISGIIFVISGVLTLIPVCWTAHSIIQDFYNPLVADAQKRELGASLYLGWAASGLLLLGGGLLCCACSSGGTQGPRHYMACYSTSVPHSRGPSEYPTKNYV

For 2nd Ab only (antibody), the FACS fluorescence amounted to 768 in experiment [1]; 1350 in experiment [2]; 1060 in experiment [3]; 768 in experiment [4]; 886 in experiment [5]; 1350 in experiment [6].
